Assay results from US20260209362A1 (VIB VZW, published 2026).
Positions count from the first letter of the chain named.

B1: anti-IL-12Rβ2 VHH clone 20504 (VHH, not shown: small tags and cut ends)
VHH: QVQLQESGGGLVQAGGSLKLSCAATGFILDYVGVGWFRQAPGKERDFVAAISRDARITDYADSVKGRFTISRDNAKNTAYLQMNSLNPEDTAVYFCAAAYTYSGSHYVTARSSDYHTWGQGTQVTVSS
notes: tested as periplasmic extract; also called 3CAM3
B2: anti-IL-12Rβ2 VHH clone 20548 (VHH, not shown: small tags and cut ends)
VHH: QVQLQESGGGLVQAGGSLRLSCADSGRTFSSYGMGWFRQAPGKEREFVAAISRGARITDYADSVKGRFTISRDNAKNTAYLQMNSLNPEDTAVYFCAAAYTYSGSHYVTARSSDYHSWGQGTQVTVSS
notes: tested as periplasmic extract; also called 3CAMS50
B3: anti-IL-12Rβ2 VHH clone 20538 (VHH, not shown: small tags and cut ends)
VHH: B2 VHH with A14P, G16D, D24A, I57N, H116P, S117Y
notes: tested as periplasmic extract; also called 2CAMS83
B4: anti-IL-12Rβ2 VHH clone 20514 (VHH, not shown: small tags and cut ends)
VHH: B2 VHH with G16D, A23I, D24A, R27P, T28S, G54D, Q82E
notes: tested as periplasmic extract; also called 3CAM70
B5: anti-IL-12Rβ2 VHH clone 20536 (VHH, not shown: small tags and cut ends)
VHH: B2 VHH with L11M, D24A, I57N, H116P, S117Y
notes: tested as periplasmic extract; also called 2CAMS53
B6: anti-IL-12Rβ2 VHH clone 20544 (VHH, not shown: small tags and cut ends)
VHH: B2 VHH with S17P, D24A, E46D, G54D, A75V, A79V
notes: tested as periplasmic extract; also called 3CAMS19
B7: anti-IL-12Rβ2 VHH clone 20509 (VHH, not shown: small tags and cut ends)
VHH: B2 VHH with D24A, S25A, E46D, G54D, S117T, V124D
notes: tested as periplasmic extract; also called 3CAM30
B8: anti-IL-12Rβ2 VHH clone 20539 (VHH, not shown: small tags and cut ends)
VHH: B2 VHH with D24A, I57N, Y80F, S117T
notes: tested as periplasmic extract; also called 2CAMS87
B9: anti-IL-12Rβ2 VHH clone 20547 (VHH, not shown: small tags and cut ends)
VHH: B2 VHH with D24A, E46D, I57N, T58A, H116A, S117Y
notes: tested as periplasmic extract; also called 3CAMS47
B10: anti-IL-12Rβ2 VHH clone 20505 (VHH, not shown: small tags and cut ends)
VHH: B2 VHH with L11S, D24A, G54D, Q82E
notes: tested as periplasmic extract; also called 3CAM4
B11: anti-IL-12Rβ2 VHH clone 20511 (VHH, not shown: small tags and cut ends)
VHH: QVQLQESGGGLVQAGESLTLSCTASGRTFSSYGMGWFRQAPGKERDFVAAISRDARYTDYADSVKGRFTISKDNAKNTAYLQMNSLNPEDTAVYFCAAAYTYSGSHYVTARSGDYNYWGQGTQVTVSS
notes: tested as periplasmic extract; also called 3CAM36
B12: anti-IL-12Rβ2 VHH clone 20516 (VHH, not shown: small tags and cut ends)
VHH: B2 VHH with D24A, G35S, E46D, G54D, A75V, A79V
notes: tested as periplasmic extract; also called 3CAM85
B13: anti-IL-12Rβ2 VHH clone 20540 (VHH, not shown: small tags and cut ends)
VHH: B11 VHH with E16D, T19R, L20I, T23A
notes: tested as periplasmic extract; also called 3CAMS5
B14: anti-IL-12Rβ2 VHH clone 20541 (VHH, not shown: small tags and cut ends)
VHH: B2 VHH with D24A, G54D, Q82E, F95S
notes: tested as periplasmic extract; also called 3CAMS9
B15: anti-IL-12Rβ2 VHH clone 20478 (VHH, not shown: small tags and cut ends)
VHH: QVQLQESGGGLVQAGGSLTLSCAASGMPISFNVLGWFRQIPGKERDFVAAISRDARITDYADSVKGRFTISRDNVKNTVYLQMNSLNPEDTAVYFCAAAYTYSGSHYVTARSSDYHSWGQGTQVTVSS
notes: tested as periplasmic extract; also called 2CAM30
B16: anti-IL-12Rβ2 VHH clone 20498 (VHH, not shown: small tags and cut ends)
VHH: QVQLQESGGGLVQAGGSLRLSCASSGRTFSSRTVGWFRQAPGKERYFVAAISRDTAYTDYADSVKGRFTISRGNAKNTVYLQMNSLNPEDTAVYYCAASHIYSGSHYISARSSDYMYWGQGTQVTVSS
notes: tested as periplasmic extract; also called 2CAM73
B17: anti-IL-12Rβ2 VHH clone 20444 (VHH, not shown: small tags and cut ends)
VHH: QVQLQESGGGLVQAGGSLRLSCTASGSIFAIDDMYWYRQAPGKQREFVAYITATNSANYLDSVNGRFTISRDNAKNSVYLQMNSLKPEDTAVYYCNAKQIVGFQIDEYWGQGTQVTVSS
notes: tested as periplasmic extract; also called 2CRM18
B18: anti-IL-12Rβ2 VHH clone 20455 (VHH, not shown: small tags and cut ends)
VHH: B17 VHH with A14P, A97T
notes: tested as periplasmic extract; also called 3CRM6
B19: anti-IL-12Rβ2 VHH clone 20454 (VHH, not shown: small tags and cut ends)
VHH: B17 VHH with G16D, K75E, A91V
notes: tested as periplasmic extract; also called 2CRM93
B20: anti-IL-12Rβ2 VHH clone 20446 (VHH, not shown: small tags and cut ends)
VHH: B17 VHH with A14P, I31S
notes: tested as periplasmic extract; also called 2CRM32
B21: anti-IL-12Rβ2 VHH clone 20518 (VHH, not shown: small tags and cut ends)
VHH: B17 VHH with A14P, K43R
notes: tested as periplasmic extract; also called 2CRMS15
B22: anti-IL-12Rβ2 VHH clone 20464 (VHH, not shown: small tags and cut ends)
VHH: B17 VHH with S21F
notes: tested as periplasmic extract; also called 3CRM86
B23: anti-IL-12Rβ2 VHH clone 20522 (VHH, not shown: small tags and cut ends)
VHH: B17 VHH with A14P, E107D
notes: tested as periplasmic extract; also called 2CRMS58
B24: anti-IL-12Rβ2 VHH clone 20442 (VHH, not shown: small tags and cut ends)
VHH: B17 VHH with A14P
notes: tested as periplasmic extract; also called 2CRM12
B25: anti-IL-12Rβ2 VHH clone 20529 (VHH, not shown: small tags and cut ends)
VHH: B17 VHH with L11S, G16D
notes: tested as periplasmic extract; also called 3CRMS94
B26: anti-IL-12Rβ2 VHH clone 20524 (VHH, not shown: small tags and cut ends)
VHH: B17 VHH with S62P
notes: tested as periplasmic extract; also called 3CRMS14
B27: anti-IL-12Rβ2 VHH clone 20456 (VHH, not shown: small tags and cut ends)
VHH: B17 VHH with A14P, R19T
notes: tested as periplasmic extract; also called 3CRM14
B28: anti-IL-12Rβ2 VHH clone 20519 (VHH, not shown: small tags and cut ends)
VHH: B17 VHH with G16E
notes: tested as periplasmic extract; also called 2CRMS16
B29: anti-IL-12Rβ2 VHH clone 20517 (VHH, not shown: small tags and cut ends)
VHH: B17 VHH with V12A, A14P
notes: tested as periplasmic extract; also called 2CRMS10
B30: anti-IL-12Rβ2 VHH clone 20458 (VHH, not shown: small tags and cut ends)
VHH: B17 VHH with Q44E
notes: tested as periplasmic extract; also called 3CRM45

What follows are binders tested against T1, biotinylated recombinant human IL-12Rβ2 (human, UniProt Q99665 24-622, random biotinylated) (assay: ELISA, periplasmic extract on biotinylated hIL-12Rβ2, signal over control wells).
T1 construct: Recombinant protein produced in-house, biotinylated; also called hIL-12RB2; human IL-12RB2
T1 sequence: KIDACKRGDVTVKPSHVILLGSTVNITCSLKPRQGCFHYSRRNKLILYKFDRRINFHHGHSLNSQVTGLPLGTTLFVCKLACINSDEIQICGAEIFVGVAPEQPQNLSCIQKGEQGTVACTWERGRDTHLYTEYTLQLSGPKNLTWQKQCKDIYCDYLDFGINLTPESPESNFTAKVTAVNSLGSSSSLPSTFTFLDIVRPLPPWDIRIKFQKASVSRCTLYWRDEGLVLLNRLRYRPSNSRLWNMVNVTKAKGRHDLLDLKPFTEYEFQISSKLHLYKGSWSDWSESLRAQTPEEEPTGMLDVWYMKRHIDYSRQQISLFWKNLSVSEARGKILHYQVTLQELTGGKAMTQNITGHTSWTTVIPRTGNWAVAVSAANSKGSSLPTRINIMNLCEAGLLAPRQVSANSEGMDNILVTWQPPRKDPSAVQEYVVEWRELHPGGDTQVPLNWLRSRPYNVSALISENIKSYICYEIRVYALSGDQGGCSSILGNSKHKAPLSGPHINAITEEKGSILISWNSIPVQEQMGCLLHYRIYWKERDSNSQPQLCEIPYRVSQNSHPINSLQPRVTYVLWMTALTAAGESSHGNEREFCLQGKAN

First: B1
Second: B2
The “ELISA binding hIL-12RB2/control” value of the first is higher: 1.27 ratio for the first, 0.951 ratio for the second.

First: B3
Second: B4
The “ELISA binding hIL-12RB2/control” value of the first is higher: 1.07 ratio for the first, 1.03 ratio for the second.

First: B5
Second: B6
The “ELISA binding hIL-12RB2/control” value of the first is lower: 0.842 ratio for the first, 0.919 ratio for the second.

Compared with B7, B8 is lower in “ELISA binding hIL-12RB2/control” value: 1.31 ratio for the first, 1.03 ratio for the second.

Compared with B9, B10 is higher in “ELISA binding hIL-12RB2/control” value: 1.02 ratio for the first, 1.07 ratio for the second.

Compared with B11, B12 is higher in “ELISA binding hIL-12RB2/control” value: 1.2 ratio for the first, 1.23 ratio for the second.

Going from B13 to B14, the “ELISA binding hIL-12RB2/control” value rises from 0.834 ratio to 0.915 ratio.

Going from B15 to B16, the “ELISA binding hIL-12RB2/control” value falls from 1.02 ratio to 0.994 ratio.

First: B17
Second: B18
The “ELISA binding hIL-12RB2/control” value of the first is lower: 0.985 ratio for the first, 1.4 ratio for the second.

Compared with B19, B20 is higher in “ELISA binding hIL-12RB2/control” value: 0.996 ratio for the first, 1.01 ratio for the second.

Compared with B21, B22 is higher in “ELISA binding hIL-12RB2/control” value: 1.01 ratio for the first, 1.29 ratio for the second.

Going from B23 to B24, the “ELISA binding hIL-12RB2/control” value falls from 1.01 ratio to 0.993 ratio.

Going from B25 to B26, the “ELISA binding hIL-12RB2/control” value rises from 0.858 ratio to 0.93 ratio.

Going from B27 to B28, the “ELISA binding hIL-12RB2/control” value falls from 1.24 ratio to 0.973 ratio.

Compared with B29, B30 is higher in “ELISA binding hIL-12RB2/control” value: 0.968 ratio for the first, 1.47 ratio for the second.

What follows are binders tested against T2, biotinylated recombinant mouse IL-12Rβ2 (mouse, UniProt P97378 24-637, random biotinylated) (assay: ELISA, periplasmic extract on biotinylated mIL-12Rβ2, signal over control wells).
T2 construct: Recombinant protein produced in-house, biotinylated; also called mIL-12RB2; mouse IL-12RB2
T2 sequence: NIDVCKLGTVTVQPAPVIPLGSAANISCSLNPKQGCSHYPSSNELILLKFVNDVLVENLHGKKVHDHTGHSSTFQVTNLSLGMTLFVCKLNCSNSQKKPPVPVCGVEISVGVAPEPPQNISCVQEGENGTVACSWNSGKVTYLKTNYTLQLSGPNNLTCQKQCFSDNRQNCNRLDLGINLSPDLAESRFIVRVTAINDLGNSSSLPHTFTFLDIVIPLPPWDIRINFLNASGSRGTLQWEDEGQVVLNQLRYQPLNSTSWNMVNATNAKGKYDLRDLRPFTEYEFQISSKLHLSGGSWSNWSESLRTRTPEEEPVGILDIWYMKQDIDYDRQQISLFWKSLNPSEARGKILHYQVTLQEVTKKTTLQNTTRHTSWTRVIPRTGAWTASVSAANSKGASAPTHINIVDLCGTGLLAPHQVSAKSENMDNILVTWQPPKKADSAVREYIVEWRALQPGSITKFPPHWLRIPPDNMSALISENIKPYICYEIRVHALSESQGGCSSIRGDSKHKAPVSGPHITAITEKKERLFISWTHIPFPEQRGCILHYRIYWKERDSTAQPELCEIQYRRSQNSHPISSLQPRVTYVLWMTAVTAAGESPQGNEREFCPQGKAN

Going from B1 to B2, the “ELISA binding mIL-12RB2/control” value falls from 14.5 ratio to 8.98 ratio.

Going from B3 to B4, the “ELISA binding mIL-12RB2/control” value rises from 4.78 ratio to 17.8 ratio.

First: B5
Second: B6
The “ELISA binding mIL-12RB2/control” value of the first is lower: 3.38 ratio for the first, 9.31 ratio for the second.

Compared with B7, B8 is lower in “ELISA binding mIL-12RB2/control” value: 10 ratio for the first, 4.89 ratio for the second.

First: B9
Second: B10
The “ELISA binding mIL-12RB2/control” value of the first is lower: 5.12 ratio for the first, 20.2 ratio for the second.

First: B11
Second: B12
The “ELISA binding mIL-12RB2/control” value of the first is higher: 25.6 ratio for the first, 21.8 ratio for the second.

First: B13
Second: B14
The “ELISA binding mIL-12RB2/control” value of the first is higher: 8.57 ratio for the first, 5.66 ratio for the second.

Compared with B15, B16 is lower in “ELISA binding mIL-12RB2/control” value: 8.78 ratio for the first, 6.62 ratio for the second.

Going from B17 to B18, the “ELISA binding mIL-12RB2/control” value rises from 4.68 ratio to 11.5 ratio.

Compared with B19, B20 is higher in “ELISA binding mIL-12RB2/control” value: 5.04 ratio for the first, 12 ratio for the second.

First: B21
Second: B22
The “ELISA binding mIL-12RB2/control” value of the first is lower: 4.43 ratio for the first, 5.44 ratio for the second.

Compared with B23, B24 is higher in “ELISA binding mIL-12RB2/control” value: 5.21 ratio for the first, 6.67 ratio for the second.

First: B25
Second: B26
The “ELISA binding mIL-12RB2/control” value of the first is higher: 13.2 ratio for the first, 9.62 ratio for the second.

First: B27
Second: B28
The “ELISA binding mIL-12RB2/control” value of the first is higher: 12.1 ratio for the first, 5.44 ratio for the second.

First: B29
Second: B30
The “ELISA binding mIL-12RB2/control” value of the first is lower: 5.47 ratio for the first, 28.4 ratio for the second.
